Substitutions are numbered along the chain they refer to.

These results are taken from PMC4911921, “Hfq assists small RNAs in binding to the coding sequence of ompD mRNA and in rearranging its structure”.

Data set [1] addresses T1, Hfq wt (Salmonella, UniProt P0A1R0 1-102). Description: EMSA; two nonspecific sites (Kns); 24 mM Tris-HCl pH 7.5, 50 mM NaCl, 50 mM NH4Cl, 50 mM KCl, 0.5 mM EDTA, 2 mM MgCl2, 5% glycerol, room temperature, 1 h; 6% native gel in 1x THEM2. To be noted: protein: recombinant, tags: C-terminal His6, chain copies: 6, label: 5'-32P. Background: Mobility shift assays separate free from complexed probe on a gel.

In data set [2] the target is T2, Hfq K56A (Salmonella, UniProt P0A1R0 1-102, K56A). Description: EMSA; 24 mM Tris-HCl pH 7.5, 50 mM NaCl, 50 mM NH4Cl, 50 mM KCl, 0.5 mM EDTA, 2 mM MgCl2, 5% glycerol, room temperature, 1 h; 6% native gel in 1x THEM2. The settings on record: protein: recombinant; tags: C-terminal His6; chain copies: 6; label: 5'-32P.
The target in data set [3] is T3, Hfq R16A (Salmonella, UniProt P0A1R0 1-102, R16A). Described as above. To be noted: protein: recombinant; tags: C-terminal His6; chain copies: 6; label: 5'-32P.
Data set [4] concerns the target T4, Hfq Y25D (Salmonella, UniProt P0A1R0 1-102, Y25D). The description is as above. To be noted: protein: recombinant; tags: C-terminal His6; chain copies: 6; label: 5'-32P.
Data set [5] addresses T1, Hfq wt. Description: EMSA; specific site (Ks); 24 mM Tris-HCl pH 7.5, 50 mM NaCl, 50 mM NH4Cl, 50 mM KCl, 0.5 mM EDTA, 2 mM MgCl2, 5% glycerol, room temperature, 1 h; 6% native gel in 1x THEM2. The settings on record: protein: recombinant, tags: C-terminal His6, chain copies: 6, label: 5'-32P.
The target of data set [6] is T1, Hfq wt. Description: EMSA; 3 nM Hfq hexamer; 24 mM Tris-HCl pH 7.5, 50 mM NaCl, 50 mM NH4Cl, 50 mM KCl, 0.5 mM EDTA, 2 mM MgCl2, 5% glycerol, room temperature, 1 h; 6% native gel in 1x THEM2. The settings on record: protein: recombinant; tags: C-terminal His6; chain copies: 6; label: 32P.
The target in data set [7] is T1, Hfq wt. Description: EMSA; 24 mM Tris-HCl pH 7.5, 50 mM NaCl, 50 mM NH4Cl, 50 mM KCl, 0.5 mM EDTA, 2 mM MgCl2, 5% glycerol, room temperature, 1 h; 6% native gel in 1x THEM2. The settings on record: protein: recombinant, tags: C-terminal His6, chain copies: 6, label: 5'-32P.
Data set [8] concerns the target T2, Hfq K56A. Description: EMSA; tightest complex; 24 mM Tris-HCl pH 7.5, 50 mM NaCl, 50 mM NH4Cl, 50 mM KCl, 0.5 mM EDTA, 2 mM MgCl2, 5% glycerol, room temperature, 1 h; 6% native gel in 1x THEM2. To be noted: protein: recombinant; tags: C-terminal His6; chain copies: 6; label: 5'-32P; five stem-loops SL1-SL5.
Data set [9] deals with T3, Hfq R16A. The data set is described as above. The settings on record: protein: recombinant; tags: C-terminal His6; chain copies: 6; label: 5'-32P; five stem-loops SL1-SL5.
Data set [10] has as its target T4, Hfq Y25D. Described as above. To be noted: protein: recombinant; tags: C-terminal His6; chain copies: 6; label: 5'-32P; five stem-loops SL1-SL5.

B1: ompD-187 ARN-3 (structured_RNA)
RNA: GCCAUUGACAAACGCCUCGUUUAACAAUGGUUGAGGAAACACGCUUUGAUAUUAUAAGGAUUAUUAAAAUGAAACUUAAGUUAGUGGCAGUGGCAGUGACUUCCCUGUUGGCAGCAGGCGUUGUAAAUGCAGCCGAGGUAUAUAACAAAGACGGCAAUAAACUGGAUCUGUACGGUAAAGUUCACG
As a reminder, the Kd is the free concentration of one partner at which half of the binding sites on the other are occupied at equilibrium, for simple one-to-one binding. For the molecule B1, the Kd in the data set with Hfq wt [1] was 2.9 ± 0.35 nM; with Hfq wt [5] it was 0.93 ± 0.24 nM. Also, the values for the binding signal with Hfq K56A [2], with Hfq R16A [3] and with Hfq Y25D [4] were ~1 fold vs same Hfq mutant to ompD-187 (similar), ~6 fold weaker than R16A to ompD-187 and ~1 fold vs same Hfq mutant to ompD-187 (similar), respectively.

On to GUUAUAUGCCUU (ssRNA) [MicC-12], for which the binding result with Hfq wt [6] is on record as “no binding”.

B2: ompD-1-95 (structured_RNA)
RNA: GCCAUUGACAAACGCCUCGUUUAACAAUGGUUGAGGAAACACGCUAAGAAAAUUAUAAGGAUUAUUAAAAUGAAACUUAAGUUAGUGGCAGUGGC
For the molecule B2, the binding signal with Hfq wt [7] (SL1, SL2) is ~1 fold vs ompD-187 (similar).

B3: ompD-93-187 (structured_RNA)
RNA: GGCAGUGACUUCCCUGUUGGCAGCAGGCGUUGUAAAUGCAGCCGAGGUAUAUAACAAAGACGGCAAUAAACUGGAUCUGUACGGUAAAGUUCACG
Consider B3, for which the binding signal in the data set with Hfq wt [7] (SL3, SL4, SL5) was about 6 fold weaker than ompD-187.

Turning to UAAGUUAGUGGCAGUGGCAGU (ssRNA) [ompD-21R], the binding result in the data set with Hfq wt [6] is recorded as “no binding”.

B4: ompD-187-SL2mut (structured_RNA)
RNA: GGCCAUUGACAAACGCCUCGUUUAACAAUGGUUGAGGAAACACGCUUUGAUAAUUCUAGGGCUUAUUUUUAUGAUGCUUAAGUUAGUGGCAGUGGCAGUGACUUCCCUGUUGGCAGCAGGCGUUGUAAAUGCAGCCGAGGUAUAUAACAAAGACGGCAAUAAACUGGAUCUGUACGGUAAAGUUCACG
In the case of B4, the binding signal with Hfq K56A [2] is ~1 fold vs same Hfq mutant to ompD-187 (similar); in the data set with Hfq R16A [3], ~10 fold weaker than R16A to ompD-187; with Hfq Y25D [4] it was ~1 fold vs same Hfq mutant to ompD-187 (similar); in the data set with Hfq wt [7], about 3 fold weaker than ompD-187.

B5: ompD-187 (structured_RNA)
RNA: GCCAUUGACAAACGCCUCGUUUAACAAUGGUUGAGGAAACACGCUAAGAAAAUUAUAAGGAUUAUUAAAAUGAAACUUAAGUUAGUGGCAGUGGCAGUGACUUCCCUGUUGGCAGCAGGCGUUGUAAAUGCAGCCGAGGUAUAUAACAAAGACGGCAAUAAACUGGAUCUGUACGGUAAAGUUCACG
For B5, the Kd was determined as 1.9 ± 0.58 nM with Hfq wt [1] (five stem-loops SL1-SL5) and 0.61 ± 0.17 nM in the data set with Hfq wt [5] (five stem-loops SL1-SL5). Moreover, the binding signal is about 2 fold weaker than wt Hfq with Hfq K56A [8], ~1 fold vs wt Hfq (not changed) in the data set with Hfq R16A [9] and about 3 fold weaker than wt Hfq with Hfq Y25D [10].

B6: ompD-187 ARN-2 (structured_RNA)
RNA: B5 RNA with A34U, G35U, A38U
In the case of B6, the equilibrium dissociation constant (Kd) with Hfq wt [1] is 2.2 ± 0.25 nM; with Hfq wt [5], 0.85 ± 0.003 nM.

B7: ompD-187 ARN-6 (structured_RNA)
RNA: B5 RNA with A157C, A160U, A161C
As to B7, the dissociation constant Kd turned out to be 2.4 ± 0.29 nM with Hfq wt [1] and 0.82 ± 0.075 nM in the data set with Hfq wt [5].

B8: ompD-187 ARN-5+6 (structured_RNA)
RNA: B5 RNA with A148G, A150G, A157C, A160U, A161C
Consider B8, for which, in the data set with Hfq wt [5], the Kd stood at 0.81 ± 0.09 nM.

B9: ompD-187 ARN-1 (structured_RNA)
RNA: B5 RNA with A23C, A24G
Take B9: the Kd in the data set with Hfq wt [1] worked out at 3 ± 0.46 nM; in the data set with Hfq wt [5] it was 0.77 ± 0.097 nM.

B10: ompD-187 ARN-5 (structured_RNA)
RNA: B5 RNA with A148G, A150G
In the case of B10, the values for the Kd with Hfq wt [1] and in the data set with Hfq wt [5] were 3 ± 0.46 nM and 0.89 ± 0.093 nM, respectively.

For GCCGAGGUAUAUAACAAA (ssRNA) [ompD-18M], the binding result in the data set with Hfq wt [6] was “no binding”.

B11: ompD-35-131 (structured_RNA)
RNA: GGAAACACGCUAAGAAAAUUAUAAGGAUUAUUAAAAUGAAACUUAAGUUAGUGGCAGUGGCAGUGACUUCCCUGUUGGCAGCAGGCGUUGUAAAUGC
As for B11, the binding signal in the data set with Hfq wt [7] (SL2, SL3) was ~4 fold tighter than ompD-187.

With GCCACUGCUUUUCUUU (ssRNA) [RybB-16], the binding result in the data set with Hfq wt [6] is listed as “no binding”.

As to CCUGUUGGCAGCAGGCGUU (ssRNA) [ompD-19S], the binding result with Hfq wt [6] is recorded as “no binding”.

As for GCCUGCAUUAAUGCCAAC (ssRNA) [SdsR-18], the binding result in the data set with Hfq wt [6] was “no binding”.
